{"source": "patent US20220315627A1", "key": {"[1]": {"target": "variant of repaired and stabilized Du422 construct (HIV161818) with the additional K655I substitution (HIV-1 strain Du422 (clade C))", "assay": "assay not named in Example 11; trimer yield as defined in Example 3 (PGT145 AlphaLISA signal)"}, "[2]": {"target": "variant of repaired and stabilized Du422 construct (HIV161818) with the additional K655I substitution (HIV-1 strain Du422 (clade C))", "assay": "assay not named in Example 11; trimer percentage as defined in Example 3 (PGT145 AlphaLISA signal over total Env signal)"}, "[3]": {"target": "ConC_SOSIP with disulfide double substitution I204C, A433C (HIV-1 clade C consensus (artificial))", "assay": "AlphaLISA on crude supernatant: PGT145 signal divided by total Env signal (His/Flag beads)"}, "[4]": {"target": "ConC_SOSIP with E64K, T316W double substitution (HIV-1 clade C consensus (artificial))", "assay": "AlphaLISA on crude supernatant: PGT145 signal divided by total Env signal (His/Flag beads)"}, "[5]": {"target": "C97ZA_SOSIP_L556P_T651F_M535N (HIV-1 strain C97ZA (clade C))", "assay": "AlphaLISA on crude supernatant as in Example 3: normalized PGT145 signal"}}, "data": [{"substance": "mAb PGT145 (antibody)", "values": [{"measurement": "trimer yield, fold over the variant of SEQ ID NO: 25 without K655I", "setting": "[1]", "value": 1.3, "unit": "fold"}, {"measurement": "trimer percentage, fold over the variant of SEQ ID NO: 25 without K655I", "setting": "[2]", "value": 1.4, "unit": "fold"}, {"measurement": "percentage of trimer formation", "setting": "[3]", "value": 43, "unit": "%"}, {"measurement": "percentage of trimer formation", "setting": "[4]", "value": 15, "unit": "%"}, {"measurement": "trimer yield, fold over the C97ZA SOSIP backbone", "setting": "[5]", "value": 5, "unit": "fold"}]}]}
